# Measurements as given in patent US20230381112A1, “Compositions and Methods of Manufacturing Amphiphilic Block Copolymers that Form Nanoparticles in Situ” (Vaccuitech North America, Inc., priority 2020, published 2023).
# “Also recorded” adds a separate entry of the source. No end group written: not given here.
# Key:
# NF-κB = experiment: Innate immune stimulation: NF-κB activation in THP1 NF-κB SEAP reporter monocytes; assay type: cell-based, human; conditions: polymer up to 20 mg/mL in culture medium
# [1] = tested on: human monocyte cells (THP1); conditions: 100 μM
# Procedure: The cellular viability of retinal pigmented epithelial like cells (ARPE19) and monocyte like cells (THP1) were assessed following exposure to thermo-responsive polymer at physiologically relevant concentrations.
# THP1 cells were grown in vitro in cell growth medium and exposed to thermo-responsive polymer micelle that was resuspended in cell growth medium at the concentrations specified up to 20 mg/mL. […] Cell viability was assessed using Promega CellTiter 96® Non-Radioactive Cell Proliferation Assay (MTT).
# [2] = DLS temperature sweep in PBS: hydrodynamic diameter (DH), transition temperature (Ttr), solubility/aggregation; assay type: physicochemical; conditions: for Ttr: drug conjugate polymers; for Ttr / DH^20° C. / DH^37° C.: PBS at 0.5 mg/mL; for DH^20° C.: hydrodynamic diameter at 20° C.; for DH^37° C.: hydrodynamic diameter at 37° C.
# Source text: Temperature-responsive: Refers to changes in properties of a material with changes in temperature. A material may be described as temperature-responsive if the properties of the material change with respect to changes in temperature. Temperature-responsive polymers are polymers that experience a change in physical properties in response to temperature, such as a change in solubility with changes temperature, which may be described by a lower critical solution temperature (LCST) or upper critical solution temperature (UCST). Preferred embodiments of the temperature-responsive polymers described herein have reduced solubility at elevated temperatures, which may be described by an LCST or transition temperature (Ttr), if the LCST is unknown. Transitions temperatures described herein are experimentally determined by dynamic light scattering or by turbidity, wherein particle size (or light scattering intensity) or absorbance are plotted against temperature to produce a sigmoidal curve. The transition temperature as used herein is the temperature (value on the x-axis) at which the y-value is 50% the maximum value of the sigmoidal curve. Temperature-responsive monomers are monomers that form temperature-responsive polymers. […] Note: temperature-responsive monomers are defined herein as a type of hydrophobic monomer that is hydrophobic at certain temperatures.
# Hydrodynamic behavior, thermo-responsiveness, and solubility under aqueous conditions. Prepared polymers and control materials were characterized for nanoparticle hydrodynamic diameter by dynamic light scattering (DLS), thermo-responsivity and overall solubility in PBS.
# [3] = Concentration-dependent hydrodynamic behavior by DLS in PBS (0.8 to 200 mg/mL, 20-37° C.); conditions: result in words; 5 mg/mL vs 200 mg/mL in PBS
# Procedure: Unless otherwise indicated, the hydrodynamic diameter (DH), also referred to as simply the diameter or as the number average diameter or number mean diameter, of the polymers and copolymers were measured using dynamic light scattering (DLS) at a scattering angle θ=90° using a Zetasizer Ultra (Malvern Panalytical, Malvern, England) equipped with a 633 nm laser, capillary cell (ZSU1002) and ZS Xplorer software. […] For measurements presented, number mean diameter was used for assessment. […] For transition temperature (Ttr) characterization, DLS measurements were performed for temperature sweeps over a maximum range of 4-50° C. at a concentration of 0.5 mg/mL, 5 mg/mL or 200 mg/mL in PBS (150 mM NaCl, pH 7.4). At each step, measurements were performed after reaching steady-state temperature conditions. Characterization of the polymer chain conformational changes was evaluated from the temperature dependence of the hydrodynamic diameter (DH); the Ttr value was determined from the intersection point of two lines formed by the linear regression of a lower horizontal asymptote and a vertical section of the S-shaped curve (sigmoidal curve) fit.
# [4] = polymers of temperature-responsive monomers; cited from earlier work
# [5] = intravitreal injection; cited from earlier work
Compound,Ttr [2],DH^20° C. [2],DH^37° C. [2],further results
"CCCCc1nc2c(N)nc3ccccc3c2n1CCCCN [Compound 34, 1-(4-aminobutyl)-2-butyl-1H-imidazo[4,5-c]quinolin-4-amine]",–,–,–,NF-κB activation (NF-κB): strong NF-κB response; viability of THP1 cells [1]: 10-20%
CN-p[(NIPMAM)f1-co-(BnMAM)f2]-b-p(HPMA)a-PEG4-Ova [Compound 291],28 °C,7.4 nm,40.4 nm,"thermo-responsive and micelle-forming behavior ([2]; result in words, DLS in PBS): retains temperature responsiveness; concentration-responsive micellization [3]: retain concentration responsive micellization properties; also recorded: similarly demonstrated"
CN-p[(NIPMAM)f1-co-(BnMAM)f2]-b-p(HPMA)a-PEG4-Ova [Compound 292],32 °C,6.1 nm,36.5 nm,–
CN-p[(NIPMAM)f1-co-(BnMAM)f2]-b-p(HPMA)a-PEG4-Ova [Compound 293],29 °C,5.7 nm,41.1 nm,–
CN-p[(NIPMAM)f1-co-(BnMAM)f2]-b-p(HPMA)a-pip-diABZI [Compound 290],31 °C,15.3 nm,25.3 nm,–
P(Val-Pro-Gly-Val-Gly)(SEQ ID NO: 3) (VPGVG; also: polymer of peptide-derived monomer),–,–,–,LCST or Ttr [4]: 27 °C
Ranibizumab: Fab molecule used for intravitreal injections,–,–,–,vitreal half-life [5]: 76.8 h
"Val-Pro-Gly-Val-Gly (SEQ ID NO: 3) derived polymethacrylate: polymethacrylate derived from the pentapeptide, Class IV of Table 1 (VPGVG; also: polymethacrylate backbone with pendant peptide)",–,–,–,LCST or Ttr [4]: 15-55 °C
